In patent US20180208663A1 (AGENCY FOR SCIENCE TECHNOLOGY AND RESEARCH, published 2018):
One block for each binder: values may come before it.

Tests used:
[1] = biological target: T1, recombinant human γc (human, UniProt P31785 23-262, limits assumed); assay: ELISA, scFv titrated (nM) on γc (IL-2Rγc)
T1 construct: also called common γ chain; IL-2Rγ
T1 sequence (looked up): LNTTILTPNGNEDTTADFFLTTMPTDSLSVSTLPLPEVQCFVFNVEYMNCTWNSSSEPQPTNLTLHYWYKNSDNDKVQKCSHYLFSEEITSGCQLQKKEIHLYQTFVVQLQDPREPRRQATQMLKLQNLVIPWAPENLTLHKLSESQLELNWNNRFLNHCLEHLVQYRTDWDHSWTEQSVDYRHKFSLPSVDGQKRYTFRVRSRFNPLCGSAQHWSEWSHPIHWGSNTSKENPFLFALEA

[2] = biological target: T2, recombinant human IL-2Rβ (human, UniProt P14784 27-240); assay: ELISA, scFv titrated (nM) on IL-2Rβ
T2 construct: also called CD122; interleukin 2 receptor β
T2 sequence (looked up): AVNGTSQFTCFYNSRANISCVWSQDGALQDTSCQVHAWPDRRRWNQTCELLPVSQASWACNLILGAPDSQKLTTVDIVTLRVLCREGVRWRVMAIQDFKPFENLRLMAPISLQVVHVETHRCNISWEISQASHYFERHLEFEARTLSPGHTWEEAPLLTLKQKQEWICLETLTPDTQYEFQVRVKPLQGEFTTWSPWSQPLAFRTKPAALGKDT

- EC50 (read off the curve) [1]: ~60 nM
B1: P1A3_FW2 single chain antibody (scFv)
scFv: EVQLVESGGGLVQPGGSLRLSCAASGGSFSGYYWSWVRQAPGKGLEWVSEINHSGSTNYNPSLKSRFTISRDNSKNTLYLQMNSLRAEDTAVYYCARSPGGYSGGYFQHWGQGTLVTVSSGGGGSGGGGSGGGGSDIQMTQSPSSLSASVGDRVTITCRSSQSLLHSNGYNYLDWYQQKPGKAPKLLIYLGSNRDSGVPSRFSGSGSGTDFTLTISSLQPEDFATYYCMQGTHWPWTFGQGTKVEIK

- EC50 (read off the curve) [2]: ~1 nM
B2: P2C4_FW2 single chain antibody (scFv)
scFv: EVQLVQSGAEVKKPGASVKVSCKASGYTFTNYYMHWVRQAPGQGLEWMGAIMPSRGGTSYPQKFQGRVTITADKSTSTAYMELSSLRSEDTAVYYCARGEYYYDSSGYYYWGQGTLVTVSSGGGGSGGGGSGGGGSQSVLTQPPSVSGAPGQRVTISCTGTSSDIGHYDFVSWYQQLPGTAPKLLIYDINNRPSGVPDRFSGSKSGTSASLAITGLQAEDEADYYCSAYTSSDTLVFGGGTKLTVL
